The text below walks through data of paper PMC3867403.

The target in assay [1] is ALK5-Flag (transforming growth factor-β receptor 1, TGFBR1) (UniProt P36897).
Assay [2] shares this target. The source holds these as a separate data set.

UniProt P36897, sequence (P36897 34-503): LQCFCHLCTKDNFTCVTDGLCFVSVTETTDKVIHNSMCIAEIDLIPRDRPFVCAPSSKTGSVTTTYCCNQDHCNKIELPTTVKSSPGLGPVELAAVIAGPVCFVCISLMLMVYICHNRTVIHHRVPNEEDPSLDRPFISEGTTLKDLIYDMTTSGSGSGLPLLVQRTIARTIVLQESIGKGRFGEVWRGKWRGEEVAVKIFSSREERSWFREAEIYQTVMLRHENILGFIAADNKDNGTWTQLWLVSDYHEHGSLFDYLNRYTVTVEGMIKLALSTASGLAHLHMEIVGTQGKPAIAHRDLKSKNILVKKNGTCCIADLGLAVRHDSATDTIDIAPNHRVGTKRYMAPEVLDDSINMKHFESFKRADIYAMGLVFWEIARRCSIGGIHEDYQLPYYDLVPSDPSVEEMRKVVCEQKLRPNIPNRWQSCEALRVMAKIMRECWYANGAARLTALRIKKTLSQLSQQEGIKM

With “GST-Lum (recombinant GST-lumican fusion protein) (from UniProt P51885 19-338) (natural protein)”, in assay [1], the rate constant 1 of healing of scratched HTCE cells, GST-Lum in basic medium was 5.37 Δ%/h and the rate constant 2 of healing of scratched HTCE cells, GST-Lum in basic medium was 14.8 Δ%/h. For the same substance, the rate constant 1 of healing of scratched HTCE cells, GST-Lum with the ALK5 inhibitor SB431542 (10 µM); monophasic, no rate constant 2 in assay [2] was 1.89 Δ%/h.

As to “GST-LumC50 (GST fusion with the C-terminal 50 amino acids of Lum) (domain or fragment)”, in assay [1], the rate constant 1 of healing of scratched HTCE cells, GST-LumC50 in basic medium is 5.35 Δ%/h and the rate constant 2 of healing of scratched HTCE cells, GST-LumC50 in basic medium is 14 Δ%/h.

With “LumC13 peptide (the last C-terminal 13 amino acids of Lum)”, in assay [1], the rate constant 1 of healing of scratched HTCE cells, LumC13 peptide was 4.62 Δ%/h and the rate constant 2 of healing of scratched HTCE cells, LumC13 peptide is 13.5 Δ%/h.

With “LumC13C-A peptide (LumC13 with the cysteine substituted with alanine)”, in assay [1], the rate constant 1 of healing of scratched HTCE cells, LumC13C-A peptide is 5.1 Δ%/h and the rate constant 2 of healing of scratched HTCE cells, LumC13C-A peptide was 13.9 Δ%/h.
